From the supplement of paper PMC10567573

B1: PTPN9 (parent)
chain: ILFSLPPALDWDSVHVPGPHAMTI

Variants of: B1
Experiment: protein stability index of a GFP-peptide fusion (GPS, HEK-293T) (PSI 1-6); higher = more stable
Details: c terminus: a fixed tail appended
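Note: lentivirally expressed fusions sorted by FACS into six bins by GFP to DsRed ratio, PSI derived from sequencing read proportions per bin multiplied by bin number.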

Row | Variant | protein stability index
1 | ILFSLPPALDWDSGHVPGPHAMTI | 2.1
2 | ILFSLPPALDWDSLHVPGPHAMTI | 3.32
3 | ILFSLPPALDWDSSHVPGPHAMTI | 2.17
4 | ILFSLPPALDWDSNHVPGPHAMTI | 2.41
5 | ILFSLPPALDWDSYHVPGPHAMTI | 2.26
6 | ILFSLPPALDWDSRHVPGPHAMTI | 2.75
7 | ILFSLPPALDWDSTHVPGPHAMTI | 2.38
8 | ILFSLPPALDWDSFHVPGPHAMTI | 4.29
9 | ILFSLPPALDWDSHHVPGPHAMTI | 2.43
10 | ILFSLPPALDWDSCHVPGPHAMTI | 2.02
11 | ILFSLPPALDWDSQHVPGPHAMTI | 2.57
12 | ILFSLPPALDWDSDHVPGPHAMTI | 1.5
13 | ILFSLPPALDWDSEHVPGPHAMTI | 1.95
14 | ILFSLPPALDWDSMHVPGPHAMTI | 3.43
15 | ILFSLPPALDWDSIHVPGPHAMTI | 2.09
16 | ILFSLPPALDWDSKHVPGPHAMTI | 1.66
17 | ILFSLPPALDWDSVHVPNPHAMTI | 2.76
18 | ILFSLPPALDWDSVHVPHPHAMTI | 2.69
19 | ILFSLPPALDWDSVHVPLPHAMTI | 4.77
20 | ILFSLPPALDWDSVHVPAPHAMTI | 3.84
21 | ILFSLPPALDWDSVHVPMPHAMTI | 2.48
22 | ILFSLPPALDWDSVHVPQPHAMTI | 3.62
23 | ILFSLPPALDWDSVHVPEPHAMTI | 2.12
24 | ILFSLPPALDWDSVHVPDPHAMTI | 1.85

Row | Variant | protein stability index
25 | ILFSLPPALDWDSVHVPVPHAMTI | 2.36
26 | ILFSLPPALDWDSVHVPIPHAMTI | 3.29
27 | ILFSLPPALDWDSVHVPWPHAMTI | 3.41
28 | ILFSLPPALDWDSVHVPCPHAMTI | 1.85
29 | ILFSLPPALDWDSVHVPSPHAMTI | 2.4
30 | ILFSLPPALDWDSVHVPKPHAMTI | 1.61
31 | ILFSLPPALDWDSVHVPRPHAMTI | 2.19
32 | ILFSLPPALDWDSVHVPGPHKMTI | 3.13
33 | ILFSLPPALDWDSVHVPGPHCMTI | 3.09
34 | ILFSLPPALDWDSVHVPGPHIMTI | 3.19
35 | ILFSLPPALDWDSVHVPGPHLMTI | 2.86
36 | ILFSLPPALDWDSVHVPGPHPMTI | 2.84
37 | ILFSLPPALDWDSVHVPGPHGMTI | 2.96
38 | ILFSLPPALDWDSVHVPGPHSMTI | 3.61
39 | ILFSLPPALDWDSVHVPGPHRMTI | 1.86
40 | ILFSLPPALDWDSVHVPGPHQMTI | 2.63
41 | ILFSLPPALDWDSVHVPGPHVMTI | 4.21
42 | ILFSLPPALDWDSVHVPGPHDMTI | 2.71
43 | ILFSLPPALDWDSVHVPGPHHMTI | 2.88
44 | ILFSLPPALDWDSVHVPGPHNMTI | 1.75
45 | ILFSLPPALDWDSVHVPGPHYMTI | 3.24
46 | ILFSLPPALDWDSVHVPGPHEMTI | 2.64
47 | ILFSLPPALDWDSVHVPGPHWMTI | 1.23
48 | ILFSLPPALDWDSVHVPGPHTMTI | 2.35

Row | Variant | protein stability index
49 | ILFSLPPALDWDSVHVPGPHMMTI | 2.59
50 | ILFSLPPALDWDYVHVPGPHAMTI | 3.24
51 | ILFSLPPALDWDNVHVPGPHAMTI | 1.81
52 | ILFSLPPALDWDLVHVPGPHAMTI | 2.65
53 | ILFSLPPALDWDDVHVPGPHAMTI | 2.79
54 | ILFSLPPALDWDKVHVPGPHAMTI | 2.36
55 | ILFSLPPALDWDPVHVPGPHAMTI | 2.4
56 | ILFSLPPALDWDQVHVPGPHAMTI | 2.06
57 | ILFSLPPALDWDMVHVPGPHAMTI | 2.1
58 | ILFSLPPALDWDVVHVPGPHAMTI | 2.03
59 | ILFSLPPALDWDTVHVPGPHAMTI | 2.42
60 | ILFSLPPALDWDAVHVPGPHAMTI | 1.88
61 | ILFSLPPALDWDRVHVPGPHAMTI | 3.77
62 | ILFSLPPALDWDGVHVPGPHAMTI | 2.02
63 | ILFSLPPALDWDIVHVPGPHAMTI | 3.25
64 | ILFSLPPALDWDSVHVPGGHAMTI | 2.97
65 | ILFSLPPALDWDSVHVPGLHAMTI | 2.44
66 | ILFSLPPALDWDSVHVPGIHAMTI | 2.37
67 | ILFSLPPALDWDSVHVPGQHAMTI | 2.55
68 | ILFSLPPALDWDSVHVPGFHAMTI | 3.89
69 | ILFSLPPALDWDSVHVPGSHAMTI | 2.48
70 | ILFSLPPALDWDSVHVPGCHAMTI | 2.95
71 | ILFSLPPALDWDSVHVPGHHAMTI | 2.46
72 | ILFSLPPALDWDSVHVPGAHAMTI | 2.77

Row | Variant | protein stability index
73 | ILFSLPPALDWDSVHVPGMHAMTI | 2.77
74 | ILFSLPPALDWDSVHVPGVHAMTI | 3.51
75 | ILFSLPPALDWDSVHVPGWHAMTI | 2.19
76 | ILFSLPPALDWDSVHVPGDHAMTI | 2.1
77 | ILFSLPPALDWDSVHVPGTHAMTI | 1.89
78 | ILFSLPPALDWDSVHVPGNHAMTI | 2.89
79 | ILFSLPPALDWDSVHVPGEHAMTI | 2.35
80 | ILFSLPPALDWDSVHVPGRHAMTI | 2.65
81 | ILFSLPPALDWDSVHVPGKHAMTI | 2.02
82 | ILFSLPPALDWDSVHVPGYHAMTI | 3.1
83 | ILFSLPPALDYDSVHVPGPHAMTI | 3.05
84 | ILFSLPPALDRDSVHVPGPHAMTI | 2.11
85 | ILFSLPPALDSDSVHVPGPHAMTI | 1.9
86 | ILFSLPPALDTDSVHVPGPHAMTI | 2.23
87 | ILFSLPPALDVDSVHVPGPHAMTI | 2.38
88 | ILFSLPPALDMDSVHVPGPHAMTI | 2.73
89 | ILFSLPPALDQDSVHVPGPHAMTI | 2.27
90 | ILFSLPPALDPDSVHVPGPHAMTI | 2.41
91 | ILFSLPPALDNDSVHVPGPHAMTI | 2.26
92 | ILFSLPPALDLDSVHVPGPHAMTI | 2.72
93 | ILFSLPPALDWDSVHVPGPAAMTI | 2.01
94 | ILFSLPPALDWDSVHVPGPSAMTI | 2.48
